# From patent publication US20200024330A1
# Experiments:
# Assay in all cases: cell-based or functional assay
# [1] = target: HIV-1 Env of isolate MGRM-AE-007 (HIV-1)
# [2] = target: HIV-1 Env of isolate MGRM-AE-006 (HIV-1)
# [3] = target: HIV-1 NL43 envelope glycoprotein (Env) on pseudovirus (HIV-1)
# [4] = target: HIV-1 Env of isolate MGRM-G-017 (HIV-1)
# [5] = target: HIV-1 Env of isolate MGRM-G-001 (HIV-1)
# [6] = target: HIV-1 Env of isolate MGRM-G-027 (HIV-1)
# [7] = target: HIV-1 92BR020 envelope glycoprotein (Env) on pseudovirus (HIV-1)
# [8] = target: HIV-1 Env of isolate MGRM-AE-008 (HIV-1)
# [9] = target: HIV-1 Env of isolate 98CN006 (subtype CRF08 BC) (HIV-1)
# [10] = target: HIV-1 92TH021 envelope glycoprotein (Env) on pseudovirus (HIV-1)
# [11] = target: aMLV envelope (negative control pseudovirus)
# [12] = target: HIV-1 Env of isolate MGRM-AE-005 (HIV-1)
# [13] = target: HIV-1 Env of isolate MGRM-G-014 (HIV-1)
# [14] = target: HIV-1 Env of isolate MGRM-G-011 (HIV-1)
# [15] = target: HIV-1 Env of isolate MGRM-G-009 (HIV-1)
# [16] = target: HIV-1 92UG024 envelope glycoprotein (Env) on pseudovirus (HIV-1)
# [17] = target: HIV-1 Env of isolate MGRM-G-004 (HIV-1)
# [18] = target: HIV-1 Env of isolate MGRM-G-015 (HIV-1)
# [19] = target: HIV-1 Env of isolate MGRM-G-019 (HIV-1)
# [20] = target: HIV-1 Env of isolate MGRM-G-006 (HIV-1)
# [21] = target: HIV-1 Env of isolate MGRM-G-013 (HIV-1)
# [22] = target: HIV-1 Env of isolate MGRM-AE-004 (HIV-1)
# [23] = target: HIV-1 92RW020 envelope glycoprotein (Env) on pseudovirus (HIV-1)
# [24] = target: HIV-1 Env of isolate MGRM-G-016 (HIV-1)
substance,measurement,setting,value
5123_A06 (PGT-125) (antibody),neutralization IC50,[1],0.876 µg/mL
same,neutralization IC50,[2],0.009 µg/mL
same,"IC50 (ug/ml), neutralizing activity",[3],> 10 µg/mL
same,neutralization IC50,[3],> 10 µg/mL
same,neutralization IC80,[3],> 10 µg/mL
same,neutralization IC90,[3],> 10 µg/mL
same,neutralization IC95,[3],> 10 µg/mL
same,"IC50, pseudovirus neutralization",[4],> 50 µg/mL
same,"IC50, pseudovirus neutralization",[5],0.033 µg/mL
same,"IC50, pseudovirus neutralization",[6],34.4 µg/mL
same,"IC50 (ug/ml), neutralizing activity",[7],0.0214 µg/mL
same,neutralization IC50,[7],0.0214 µg/mL
same,neutralization IC80,[7],0.0738 µg/mL
same,neutralization IC90,[7],0.156 µg/mL
same,neutralization IC95,[7],0.323 µg/mL
same,neutralization IC50,[8],> 50 µg/mL
same,"IC50 (µg/mL), pseudovirus neutralization",[9],0.201 µg/mL
same,"IC50 (ug/ml), neutralizing activity",[10],0.0066 µg/mL
same,neutralization IC50,[10],0.0066 µg/mL
same,neutralization IC80,[10],0.0292 µg/mL
same,neutralization IC90,[10],0.0701 µg/mL
same,neutralization IC95,[10],0.157 µg/mL
same,"IC50, pseudovirus neutralization",[11],> 50 µg/mL
same,neutralization IC50,[12],0.01 µg/mL
same,"IC50, pseudovirus neutralization",[13],0.007 µg/mL
same,"IC50, pseudovirus neutralization",[14],> 50 µg/mL
same,"IC50, pseudovirus neutralization",[15],> 50 µg/mL
same,"IC50 (ug/ml), neutralizing activity",[16],> 10 µg/mL
same,neutralization IC50,[16],> 10 µg/mL
same,neutralization IC80,[16],> 10 µg/mL
same,neutralization IC90,[16],> 10 µg/mL
same,neutralization IC95,[16],> 10 µg/mL
same,"IC50, pseudovirus neutralization",[17],> 50 µg/mL
same,"IC50, pseudovirus neutralization",[18],> 50 µg/mL
same,"IC50, pseudovirus neutralization",[19],> 50 µg/mL
same,"IC50, pseudovirus neutralization",[20],> 50 µg/mL
same,"IC50, pseudovirus neutralization",[21],> 50 µg/mL
same,neutralization IC50,[22],> 50 µg/mL
same,"IC50 (ug/ml), neutralizing activity",[23],0.0028 µg/mL
same,neutralization IC50,[23],0.0028 µg/mL
same,neutralization IC80,[23],0.011 µg/mL
same,neutralization IC90,[23],0.0248 µg/mL
same,neutralization IC95,[23],0.0526 µg/mL
same,"IC50, pseudovirus neutralization",[24],> 50 µg/mL
4858_P08 (PGT-123) (antibody),neutralization IC50,[1],> 50 µg/mL
same,neutralization IC50,[2],> 50 µg/mL
same,"IC50 (ug/ml), neutralizing activity",[3],> 10 µg/mL
same,"IC50, pseudovirus neutralization",[3],> 10 µg/mL
same,"IC80, pseudovirus neutralization",[3],> 10 µg/mL
same,IC90 (pseudovirus neutralization),[3],> 10 µg/mL
same,"IC95, pseudovirus neutralization",[3],> 10 µg/mL
same,"IC50, pseudovirus neutralization",[4],0.026 µg/mL
same,"IC50, pseudovirus neutralization",[5],0.009 µg/mL
same,"IC50, pseudovirus neutralization",[6],0.182 µg/mL
same,"IC50 (ug/ml), neutralizing activity",[7],0.013 µg/mL
same,"IC50, pseudovirus neutralization",[7],0.013 µg/mL
same,"IC80, pseudovirus neutralization",[7],0.039 µg/mL
same,IC90 (pseudovirus neutralization),[7],0.0741 µg/mL
same,"IC95, pseudovirus neutralization",[7],0.134 µg/mL
same,neutralization IC50,[8],> 50 µg/mL
same,"IC50 (µg/mL), pseudovirus neutralization",[9],0.008 µg/mL
same,"IC50 (ug/ml), neutralizing activity",[10],> 10 µg/mL
same,"IC50, pseudovirus neutralization",[10],> 10 µg/mL
same,"IC80, pseudovirus neutralization",[10],> 10 µg/mL
same,IC90 (pseudovirus neutralization),[10],> 10 µg/mL
same,"IC95, pseudovirus neutralization",[10],> 10 µg/mL
same,"IC50, pseudovirus neutralization",[11],> 50 µg/mL
same,neutralization IC50,[12],> 50 µg/mL
same,"IC50, pseudovirus neutralization",[13],0.005 µg/mL
same,"IC50, pseudovirus neutralization",[14],14.9 µg/mL
same,"IC50, pseudovirus neutralization",[15],33.5 µg/mL
same,"IC50 (ug/ml), neutralizing activity",[16],> 10 µg/mL
same,"IC50, pseudovirus neutralization",[16],> 10 µg/mL
same,"IC80, pseudovirus neutralization",[16],> 10 µg/mL
same,IC90 (pseudovirus neutralization),[16],> 10 µg/mL
same,"IC95, pseudovirus neutralization",[16],> 10 µg/mL
same,"IC50, pseudovirus neutralization",[17],0.181 µg/mL
same,"IC50, pseudovirus neutralization",[18],> 50 µg/mL
same,"IC50, pseudovirus neutralization",[19],0.008 µg/mL
same,"IC50, pseudovirus neutralization",[20],> 50 µg/mL
same,"IC50, pseudovirus neutralization",[21],3.97 µg/mL
same,neutralization IC50,[22],> 50 µg/mL
same,"IC50 (ug/ml), neutralizing activity",[23],0.0038 µg/mL
same,"IC50, pseudovirus neutralization",[23],0.0038 µg/mL
same,"IC80, pseudovirus neutralization",[23],0.0106 µg/mL
same,IC90 (pseudovirus neutralization),[23],0.0194 µg/mL
same,"IC95, pseudovirus neutralization",[23],0.0343 µg/mL
same,"IC50, pseudovirus neutralization",[24],> 50 µg/mL
